Tests used:
[1] = molecular target: CXCR4 (Fusin), human (human) (UniProt P61073); assay: cell-based or functional assay
[2] = molecular target: CXCR4 (Fusin), human (human) (UniProt P61073); assay: flow cytometry, H9 cells
[3] = molecular target: CXCR4 (Fusin), human (human) (UniProt P61073); assay: flow cytometry, MT-2 cells
[4] = molecular target: CXCR4 (Fusin), human (human) (UniProt P61073); assay: flow cytometry, C8166 cells
[5] = molecular target: CXCR4 (Fusin), human (human) (UniProt P61073); assay: flow cytometry, MOLT-4 cells
[6] = molecular target: CXCR4 (Fusin), human (human) (UniProt P61073); assay: flow cytometry, RD/CD4 cells
[7] = molecular target: CXCR4 (Fusin), human (human) (UniProt P61073); assay: flow cytometry, Sup T1 cells
[8] = molecular target: CXCR4 (Fusin), human (human) (UniProt P61073); assay: flow cytometry, HeLa/CD4 cells
[9] = molecular target: CXCR4 (Fusin), human (human) (UniProt P61073); assay: flow cytometry, Daudi/CD4 cells
[10] = molecular target: CXCR4 (Fusin), human (human) (UniProt P61073); assay: Scatchard analysis of 125I-12G5 binding; RD cells
[11] = molecular target: CXCR4 (Fusin), human (human) (UniProt P61073); assay: Scatchard analysis of 125I-12G5 binding; BC7 cells
[12] = molecular target: CXCR4 (Fusin), human (human) (UniProt P61073); assay: FACS, 10 µg/ml 12G5, Sup-T1 cells infected by HIV-2/vcp
[13] = molecular target: CXCR4 (Fusin), human (human) (UniProt P61073); assay: flow cytometry, PBMC cultured 5 days, average of 10 batches
[14] = molecular target: CXCR4 (Fusin), human (human) (UniProt P61073); assay: flow cytometry, macrophages cultured 5 days, average of 3 batches
[15] = molecular target: HA-tagged CXCR4 (HA-tagged Fusin) on CHO-K1 cells (influenza; human) (UniProt P61073); assay: Scatchard analysis of 125I-12G5 binding; CHO cells expressing HA-tagged Fusin
[16] = molecular target: CXCR4 (Fusin), human (human) (UniProt P61073); assay: Scatchard analysis of 125I-12G5 surface binding at 4 C; RD or BC7 cells (endogenous CXCR4)
[17] = molecular target: HA-tagged CXCR4 (HA-tagged Fusin) on CHO-K1 cells (influenza; human) (UniProt P61073); assay: Scatchard analysis of 125I-12G5 surface binding at 4 C; CHO cells expressing HA-tagged Fusin
[18] = molecular target: CXCR4 (Fusin), human (human) (UniProt P61073); assay: FACS, 10 µg/ml 12G5, BC7 cells chronically infected by HIV-2/vcp; loss of surface Fusin or blocking of the epitope not told apart
[19] = molecular target: CXCR4 (Fusin), human (human) (UniProt P61073); assay: FACS, 10 µg/ml 12G5, Daudi cells chronically infected by HIV-2/vcp; loss of surface Fusin or blocking of the epitope not told apart
[20] = molecular target: CXCR4 (Fusin), human (human) (UniProt P61073); assay: FACS, 10 µg/ml 12G5, Nalm6 cells chronically infected by HIV-2/vcp; loss of surface Fusin or blocking of the epitope not told apart

MAb 12G5 (antibody) was tested. Which antibody concentration required to inhibit HIV-2/vcp infection of CD4-negative BC7, Nalm6 and Daudi cells (RT activity) [1] did it give?
The antibody concentration required to inhibit HIV-2/vcp infection of CD4-negative BC7, Nalm6 and Daudi cells (RT activity) was 5 to 20 µg/mL.

What about the antibody concentration that inhibited CP-MAC infection of Sup-T1 cells (RT activity) [1] of the same substance?
The antibody concentration that inhibited CP-MAC infection of Sup-T1 cells (RT activity) was 1 µg/mL.

And the percentage of cells expressing CXCR4 by 12G5 staining [2]?
Its percentage of cells expressing CXCR4 by 12G5 staining is 51.4%.

And the percentage of cells expressing CXCR4 by 12G5 staining [3]?
Its percentage of cells expressing CXCR4 by 12G5 staining is 99%.

And the percentage of cells expressing CXCR4 by 12G5 staining [4]?
Its percentage of cells expressing CXCR4 by 12G5 staining is 72%.

What about the percentage of cells expressing CXCR4 by 12G5 staining [5] of the same substance?
Its percentage of cells expressing CXCR4 by 12G5 staining is 89.5%.

And the percentage of cells expressing CXCR4 by 12G5 staining [6]?
The percentage of cells expressing CXCR4 by 12G5 staining was 93.3%.

What about the percentage of cells expressing CXCR4 by 12G5 staining [7] of the same substance?
Its percentage of cells expressing CXCR4 by 12G5 staining is 81.5%.

And the percentage of cells expressing CXCR4 by 12G5 staining [8]?
The percentage of cells expressing CXCR4 by 12G5 staining was 35.5%.

What about the percentage of cells expressing CXCR4 by 12G5 staining [9] of the same substance?
The percentage of cells expressing CXCR4 by 12G5 staining was 88.4%.

And the antibody molecules bound per cell (antibody molecules per cell) [10]?
Its antibody molecules bound per cell (antibody molecules per cell) is 400000.

And the antibody molecules bound per cell (antibody molecules per cell) [11]?
Its antibody molecules bound per cell (antibody molecules per cell) is 50000.

And the percent reduction of 12G5 binding on HIV-2/vcp-infected against uninfected cells [12]?
The percent reduction of 12G5 binding on HIV-2/vcp-infected against uninfected cells was 75%.

And the percentage of cells expressing CXCR4 by 12G5 staining [13]?
The percentage of cells expressing CXCR4 by 12G5 staining was 27.8%.

What about the percentage of cells expressing CXCR4 by 12G5 staining [14] of the same substance?
The percentage of cells expressing CXCR4 by 12G5 staining was 5.2%.

What about the antibody molecules bound per cell (antibody molecules per cell) [15] of the same substance?
Its antibody molecules bound per cell (antibody molecules per cell) is 1e+06.

What about the Kd [16] of the same substance?
Its Kd is 1 to 5 nM.

What about the Kd [17] of the same substance?
The Kd was 1 to 5 nM.

And the percent reduction of 12G5 binding on HIV-2/vcp-infected against uninfected cells [18]?
Its percent reduction of 12G5 binding on HIV-2/vcp-infected against uninfected cells is 98%.

And the percent reduction of 12G5 binding on HIV-2/vcp-infected against uninfected cells [19]?
The percent reduction of 12G5 binding on HIV-2/vcp-infected against uninfected cells was 79%.

And the percent reduction of 12G5 binding on HIV-2/vcp-infected against uninfected cells [20]?
Its percent reduction of 12G5 binding on HIV-2/vcp-infected against uninfected cells is 87%.

Source: patent USRE39057
